Test: yeast display, Sf9 membrane polyspecificity reagent, FACS + sequencing; frameworks hold sequencing errors
Procedure, shortened: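 A nanobody's polyreactivity label depends on the gate it was sorted from. Yeast display cells were stained with 10% biotinylated, detergent-solubilized Sf9 membrane reagent for 1 hour at 4 °C, enriched on streptavidin microbeads and sorted by FACS. The low and high (top ~1%) gates were set on anti-HA fluorescence for expression and streptavidin fluorescence for reagent binding.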

Sequence	polyreactivity (PSR sort gate)
QVQLEESGGGLVQAGGSLRLSCAASGSTFTPYAMGWYRQAPGKERELVAAISWSGGSTYYADSVKGRFTISRDNAKNTVYLQMNSLKPEDTAVYYCAATYSYRTRAWGWGNYDYWGQGTQVTVSS	high polyreactivity
QVQLVESGGGLVQAGGSLRLSCAASGFIFYQYAMGWYRQAPGKERELVAAISKSGGNTYYADSVKGRFTISRDNAKNTVYLQMNSLKPEDTAVYYCAADRGQRGMYYWGQGSQVTVSS	high polyreactivity
QVQIVESGGGIVQAGGSLRLSSAASGSTFSFYVMGWYRHAPGKEREWVAAISWSSVGTYYADSVKGRFTISRDNAKNTVYLQMNSLKPDDTAVYYCAAERYRRVAKHGYWGQGTQVTVSS	high polyreactivity
QVQLVESGGGLVQAGGSLRLSCAASGIIFRGYAMRWYRQAPGKVREVVAVITSGGGTYYADSVKGRFTISRDNAKNNVYLQMNSLKPEETAVYYCNAASSLPGYDYWGQGTQVTVSS	high polyreactivity
QVQLVESGGGLVQAGGSLRLSCAASGFIFYRYALGWYRQAPGKERELVAAISRSGGSTYYADSVKVRFTISRDNAKNTVYLQMNSLKPEDTAVYYCAVTGYWYYHDHYSYPSRYYYWGQGTQVTVSS	high polyreactivity
QVQLVESGGGLVQAGGSLRLSCAASGSILYIYAMGWYRQAPGKERELVASINSGGSTYYADSVKGRFTISRDNAKNTVYLHMYSLKPEDTGVYYCAKQGVDYWGQGTQVTVSS	low polyreactivity
QVQLVESGGGLVQAGGSLRLSCAASGSTFRKYAMGWYRQAPGKEREFVAAITWSTGTTYYADSVKGRFTISRDNAKNTVYLQMNSLKPEDTAVYYCAADSQPPHELYESIEHESWGQGTQVTVSS	low polyreactivity
QVQLVESGGGLVQAGGSLRLSCAASGSIFVPNAMGRYRQAPGKERELVAAITSGGSTYYADSVKGRFTISRDNAKNTVYLQMNSLKPEDTAVYYCAADIGSQYFGHYDYWGQGTQVTVSS	high polyreactivity
QVQLVESGGGLVQAGGSLRLSCAASGSIFLLYYMGWYRQAPGKERELVAANTWSGGSTYYADSVKGRFTISRDNAKNSVYLQMNSLKPEDTAVYYFAADEPYPTAYEYWGQGTQVTLSS	low polyreactivity
QVQLVESGGGLVQAGGSLRLSCAASGFIFSANAMGWYRQAPGKERELVAVISWNGDGTYYADSVKGRFTISRDNAKNTVYLQMNSLKAEDTAVYYCAALSYAYRSQSRRYGYRFDYWGQGTQVTVSS	high polyreactivity
QVQLVESGGGLVQAGGSLRLSCAASGSIFGQYAMGWYRQAPGKERELVASISASAASTYYADSVKGRFTISRDNAMNTVYLQLNSLKPEDTAVYYCNATTRWIGYVTIDFDYWGQGTQVNVSS	low polyreactivity
QVQLVESGGGLVQAGGSLRLSCAASGRTFGTNAMGWYRQAPGKERELVAAIRRGGSRTYNADSVKGRFTISRDIAKNTVYLQMNSLKPEDTAVYYCAVDYYPYEVSYVRMDYWGQCTQVTVSS	low polyreactivity
QVQLVESGGGLVQAGGSLRLSCAASGSIFVGYAMGWYRQAPGKERELVAAIRWSGGSTYYADSVKGRFTISRDNAKNTVYLQMNSLKPEDTAVYYCAKYFPAGYYYWGQGTQVTVSS	low polyreactivity
QVQLVESGGGLVQAGGSLRLSCAASGFTFAYNAMGWYRQAPGKERELVAAISRSGARTYYADSVKGRFTISRDNAKNTVYLQMNSLKPEDTAVYYCNARDYTLYGYWGQGTQVTVSS	high polyreactivity
QVQLVESGGGLVQAGGSLRLSCAPSGSIFPYYAMGWYRQAPGKERELVAAISGSDGTTYYADSVKGRFTISRDNAKNTVYLQMNSLKPEDTAVYYCAVELPELYYYFAYEYWGQGTQVTVSS	high polyreactivity
QVQLVESGGGLVQAGGRLRLSCAASGSTFVRYAMGWYRQAPGKERELVAAISSSGATTYYADSVKGRFTISRDNAKNTVYLQMNSLKPEDTAVYYCAKYGRATRGLDNYWGQGTQVTVSS	high polyreactivity
QVQLVESGGGLVQAGGSLRLSCAASGGIFYLYAMGWYRQAPGKERELVASINWRSASTYYADSVKGRFTISRDNAKNTVYFQMNSLKPEDTAVYYCNVQWYGGYDYWGQGTQVTVSS	low polyreactivity
QVQLVESGGGLVQAGGSLRLSCAASGFICTGYTMGWYRQAPGKERELVARISSGDSTKYADSVKGRFTISRDNAKNTVYLQMNSLKPEDTAVYYCNVRDRRSIRSRSDYWGQGTQVTVSS	high polyreactivity
QVQLVESGGGLVQAGGSLRLSCAASGRIGAYAMGWYRQAPGKERELVAAIRWSTGSTYYADSVKGRFTISRDNAKNTVFLQMNSLKPEDTAVYYCAAEFVRRGGDFWGQGTQVTVSS	high polyreactivity
QVQLVESGGGLVQAGASLRLSCAASGFNFDTNTIGWYRQAPGKERELVAVITRRGGRTYDADSVKGRFTISRDNAKNRVYLQMNSLKPVDTAVYYFNSVSYGQYGWGEGTQVTVSS	high polyreactivity
QVQLVESGGGLVQAGGSLRLSCAASGLTFYVYAMGWYRQAPGKERELVAAISSGGRTYYADSVKGRFTISRDNAKNTVYLQMNSLKPEDTAVYYCAARSPVWRTTEDYWGQGTQVTVSS	high polyreactivity
QVQLVESGGGLVQAGGSLRLSCASSGIIFAQYTMGWYRQEPGKERELVAAINRNGGSTYYADSVKGRCTISRDNAKHTVYLQMNSLKPEDTAVYYCTKDIERYVRIYDSWGQGTQVTVSS	low polyreactivity

Sequence	polyreactivity (PSR sort gate)
QVQLVESGGGLVQAGGSLRLSCAASGRIFGTNSIGWYIQAPRKERELVSAISSSTSTNYADSVKGRFTISRDNAKNTVYLLMYSLKRDDTAFYYFDADELRTDWDYAQGYDYWGQGTQVTVSS	low polyreactivity
QVQLVESGGGLVQAGGSLRLSCAASGSTFPHYVMGWYRQAPGKERELVAGISWSGGSTYYADSVKGRFTISRDNAKNTVYLQMNSLKPEDTAVYYCAKVLTWRGYRYNYWGQGTQVTVSS	low polyreactivity
QVQLVESGGGLVQAGGSLRLSCAASGRIFPNNAMGWYRQAPGKERELVAAITSIGGSTYYADSVKGRFTISRDNAKNTVYLQMNSLKPEDTAVYYCAARWERFVPTGRFSYYYYYWGQGTQVTVSS	high polyreactivity
QVHLVESGGGLVQAGGSLRLSCAASGSTFVGYAMGWYRQAPGKERELVAAISGGDSTYYADSVKGRFTISRDNAKNTVYLQMNSLKPEDTAVYYCNADYGDTFEYDYWGQGTQVTVSS	low polyreactivity
QVQLVESGGGLVQAGGSLRLSCAASGFIFSRNAMGWYRQAPGKERELVASITRRGGSKYYADSVKGRFTISRDYAKNTVYLQMNSLKPEDTAVYYCAADGYVRPPEMDYWGQGTQVTVSS	high polyreactivity
QVQLVESGGGLVQAGGSLRLSCASSGFNFVYYSMGRYRQAPGKEREFVAAITERGGSTDYADSVKGRFTISRDHAKNTVYFQMNSLKPEDTAVYYCIARDVTLWDDVYQQDGSGYWGQGTQVTVSS	low polyreactivity
QVQLVESGGGLVQAGGSLRLSCAASGLIFTYYAMGWYRPAPGKERELVASINYSGGSTYYADSVKGRFTISRDNAKNSVYLHMNSLKPEDTAVYYCAARRVTQTEGPMGYWGQGTQVTVSS	low polyreactivity
QVQLVESGGGLVQAGGSLRLSCAASGRTFRKYAMGWYRQAPGKERELVAAISWSGGSTYYANSVKGRFTISRDNAKNTVYLPMNSLKPVDTAVYYCAAVPVHTGSLYWGFTTGYDYWGQGTQVTVSS	low polyreactivity
QVQLVESGGVLVQAGGSLRLSCAASGSIFDTYAMGWYRQAPGKERELVAAITWSGSSTYYADSVKGRFTISRDNAKNTVYLQMNSLKQEDTAVYYCAKDYYVEVTTEYDYWGQGTQVTVSS	high polyreactivity
QVQLVESGGGLVQAGGTLRLSCSASGIISTYYAMGWYRQAPGKERELVAAITSGGSTYYADSVKGRFTISRDNAKNTVYLQMNSLKPEDTAVYYCATRRIYKWYRYYYWGQCTQVTVSS	high polyreactivity
QVQLVESGGGLVQAGGSLRLSCAASGSTFSSNAMGWYRQAPGNERELVAAISKRGGRTYYADSVKGRFTISRDNAKNTVYLQMNSLKPEDTAVYYCAKDYSSAVDYWGQGTQVTVSS	high polyreactivity
QVQLVESGGGLVQAGGSLRLSCAASGSTFGGYAMGWYRQAPGKERELVAAISSGGSTYYADSVKGRFTISRDNAKNTVYLQMNSLKPEDTAVYYCAAEGIYFILWYGYVEYDYWGQGTQVTVSS	low polyreactivity
QVQLVESGGGLLQAGGSLRLSCAASGSIFTSNAMGWYRQAPGKERELVAAITRGGNTNYADSVKGRFTISRDNAKNTVYLQMNSLKPEDTAVYYCATEGFVYSWLWEFEYWGQGTQVTVSS	low polyreactivity
QVQLVESGGGLVQAGGSLRLSCAASGSIFPGYVMGWYRQAPGTERELVAAISWSGGSTYYADSVKGRFTISRDNAMNTVYLQLNSLKPEDTAVYYWAADYSYYHGPSRHKHDYWGQGTQVTVSS	low polyreactivity
QVQLVESGGGLVQAGGSLRLSCAASGYTFDRYAMGWYRQAPGKERELVAVISRSGATTYYADSVKGRFTISRDNAKNTVYLQMNSLKPEDTAVYYCAARNPSGKGRYDYWGQGTQVTVSS	high polyreactivity
QVQLVESGGGLVQAGGSLRLSCAASGRTFGQNALGWYRQAPGKERELVASIRSGGITDYADSVKGRFTISRDNAKNTVYLQMNSLKPEDTAVYYCNAEGVWWSTRYDSWGQGTQVTVSS	low polyreactivity
QVQLVESGGGLVQAGGSLRLSCAASGSTLTWNAMGWYRQAPGKERELVATISYSGSSTYYADSVKGRFTISRDNAKNSVYLQMFSLKPEDTAGYYCNAQELAYGHGFDSWGLGTQVTVSS	low polyreactivity
QVQLVESGGGLVQAGGSLRLTCAASGRIFTVYAMGWYRQAPGKERELVAAIDFSDGTTYYADSVKGRFTISRDNAKNTVYLQMNSLKPEDTAVYYCAAEGGSALDDDYWGQGTQVTVSS	high polyreactivity
QVQLVESGGGLVQAGGSLRLSCAASGSIFQYNVMGRYRQEPGKEREFVADISSSGGSTYYADSVKGRFTISRDNAKNTVYLQMNSLKPEATAVYYCNARSKVAYDRHYYWGQGTQVTVSS	low polyreactivity
QVQLVESGGGLVQAGGSLRLSCAASGRTFSNYAMGWYRQAPGKERELVAAITGSGGSTYYADSVKGRFTISRDNAKNTVYLQLISLKPEDTAVYYCNAYRASKYLTGNGHDYWGQGTQVTVSS	low polyreactivity
QVQLVESGGGLFQAGGSLRLSCAASGFTFRTYAMGWYRQAPGKERELVATIRRAGSTNYADSVKGRFTISRDNAKNTVYLQMNRLKPEDTAVYYCNAGFSHRSDNGIDGYYWGPGTQVTVSS	high polyreactivity
